From patent US12006513B2, “Methods for the long-term expansion of granulocyte-macrophage progenitors and applications thereof” (University of Southern California, priority 2018, dated 2024)

What was measured:
[1] = tested on: bone marrow cells isolated from adult C57BL/6 mice; assay: Small molecule library screens on bone marrow cells in serum free N2B27 medium; type: cell-based, mouse; conditions: second screening, together with GDC0879
ex vivo expanded GMPs = assay: Macrophage differentiation of ex vivo expanded GMPs; type: cell-based, mouse; conditions: RPMI 1640+10% FBS+20 ng/mL MCSF, 7 days
Description: FIG. 3A-I presents results of macrophages differentiation from GMPs. […] P7 GMPs were cultured in RPMI 1640+10% FBS+20 ng/mL MCSF for 7 days. Mature macrophages were re-plated, fixed and stained for CD11b and F4/80. (B) Provides the results of an in vitro functional test of the differentiated macrophages. 1×10^5 GMPs (P7) or 1×10^6 whole BM cells were seeded into 1 well of 6-well plate in RPMI 1640+10% FBS+20 ng/mL MCSF. 7 days later, mature bone marrow-derived macrophages (BMM) and GMP-derived macrophages (GMPM) were trypsinized, counted and reseeded into 48-well plate at 1×10^5 cells per well in RPMI 1640+10% FBS. After overnight, cells were stimulated with 500 ng/mL LPS for 6 or 24 h. The inflammatory cytokines in the supernatant were measured by ELISA. (C) Provides images of another in vitro functional test of the differentiated macrophages. Green: E. coli-GFP. Red: tdTomato^+ macrophages. Top image, GFP labeled E. coli were co-cultured with tdTomato^+ GMPs-derived macrophages. Consecutive pictures were taken each 30′ under Zeiss LSM-780 confocal microscope for 1 h. […] (E), cells were harvested and FITC positive cells were analyzed by using BD Arial flow cytometry. […]
Long-term ex vivo expanded GMPs can differentiate into functional and mature macrophages. […] After 6 or 24 h, the supernatant was harvested and the concentrations of inflammatory cytokines TNFα, IL6 and IL10 by ELISA were measured.

mouse GMP = assay: Granulocyte differentiation of ex vivo expanded GMPs; type: cell-based; conditions: RPMI 1640+10% FBS, 20 ng/mL GCSF, 72 h
Description: Long-term ex vivo expanded GMPs can differentiate into functional and mature granulocytes. Granulocyte colony-stimulating factor (G-CSF) is a known hematopoietic growth factor that regulates neutrophils production in the bone marrow. G-CSF was used to induce mouse GMP differentiation towards the neutrophil lineage. After culturing for 3 weeks in E7^+SCF/GDC/CHIR conditions, GMPs were re-plated in RPMI 1640+10% FBS medium and stimulated with 20 ng/mL of GCSF. Seventy-two hours after stimulation with GCSF, GMPs differentiated into cells that morphologically resembled granulocytes (e.g., see FIG. 3F). To further verify the identity of these cells, the cells were harvested and stained with Gr1 and CD115 antibodies and analyzed by flow cytometer. Granulocytes are Gr1^+ and CD115^−.

Molecule: O=C(NCCCn1ccnc1)c1cc(-c2ccco2)on1 [SKL2001]
- expansion of the uniform round-shaped cells [1]: acted synergistically with GDC0879 to promote the expansion

B1: MCSF: macrophage colony-stimulating factor, used at 20 ng/mL for macrophage differentiation (protein, UniProt P09603 33-554, looked up)
Macrophage colony-stimulating …: EEVSEYCSHMIGSGHLQSLQRLIDSQMETSCQITFEFVDQEQLKDPVCYLKKAFLLVQDIMEDTMRFRDNTPNAIAIVQLQELSLRLKSCFTKDYEEHDKACVRTFYETPLQLLEKVKNVFNETKNLLDKDWNIFSKNCNNSFAECSSQDVVTKPDCNCLYPKAIPSSDPASVSPHQPLAPSMAPVAGLTWEDSEGTEGSSLLPGEQPLHTVDPGSAKQRPPRSTCQSFEPPETPVVKDSTIGGSPQPRPSVGAFNPGMEDILDSAMGTNWVPEEASGEASEIPVPQGTELSPSRPGGGSMQTEPARPSNFLSASSPLPASAKGQQPADVTGTALPRVGPVRPTGQDWNHTPQKTDHPSALLRDPPEPGSPRISSLRPQGLSNPSTLSAQPQLSRSHSSGSVLPLGELEGRRSTRDRRSPAEPEGGPASEGAARPLPRFNSVPLTDTGHERQSEGSFSPQLQESVFHLLVPSVILVLLAVGGLLFYRWRRRSHQEPQRADSPLEQPEGSPLTQDDRQVELPV
- cells expressing macrophage markers CD11b and F4/80 (ex vivo expanded GMPs): almost all the cells expressed both CD11b and F4/80

B2: GCSF: granulocyte colony-stimulating factor, used at 20 ng/mL for granulocyte differentiation (protein, UniProt P09919 31-207, looked up)
Granulocyte …: TPLGPASSLPQSFLLKCLEQVRKIQGDGAALQEKLVSECATYKLCHPEELVLLGHSLGIPWAPLSSCPSQALQLAGCLSQLHSGLFLYQGLLQALEGISPELGPTLDTLQLDVADFATTIWQQMEELGMAPALQPTQGAMPAFASAFQRRAGGVLVASHLQSFLEVSYRVLRHLAQP
- cells derived from GMPs that were Gr1+ CD115− (mouse GMP): more than 80%
